Experimental findings from patent US20150329642A1 (Genmab, published 2015) are described below.

“And” between values parts separate entries of the source, which are not always exact repeats. Equal values may be shown once.

For experiment [1], the target named is T1, human c-Met, membrane-bound on cells (human, UniProt P08581 25-1390).
T1 construct: whole, on cells; A431 cells carry on average 30,000 copies of c-Met per cell (Qifi); also called c-Met expressed on A431 cells; c-Met on A549 cells
The experiment is described as follows: flow cytometry on A431 cells (PE goat anti-human IgG); third panel. As for the experimental part: (§1) The binding of anti-c-Met antibodies and monovalent forms thereof (also termed “UniBody molecules” herein, see Example 5) to A431 cells expressing membrane-bound c-Met (purchased at ATCC, CRL-1555) was tested using flow cytometry (FACS Canto II, BD Biosciences). […] Binding of anti-c-Met antibodies and UniBody molecules was detected using a Phycoerythrin-conjugated goat-anti-human IgG antibody (Jackson). IgG1-5D5 was used as positive control antibody, and HuMab-KLH was used as isotype control antibody. EC₅₀ values were determined by means of non-linear regression (sigmoidal dose-response with variable slope) using GraphPad Prism V4.03 software (GraphPad Software, San Diego, Calif., USA).
(§2) Also maximum binding levels were unchanged between IgG1's and UniBody molecules. For antibodies 005, 006, 008, 035, 045 and 058, on the other hand, a more than 2-fold […] as well as a decrease in maximum binding level was observed when comparing IgG1 with their UniBody counterpart. This was most likely due to the […] (Kd) of these antibodies (see Example 14).

For experiment [2], the target named is T2, recombinant human c-Met extracellular domain (R&D systems) (human, UniProt P08581 25-932).
T2 construct: extracellular domain; Bought reagent; also called coated extracellular domain of c-Met; recombinant c-Met
The experiment is described as follows: competition ELISA on coated recombinant c-Met extracellular domain; blocked ligand Europium-conjugated HGF; column headed EC50 on the sheet, called IC50 in paragraph 270; lower panel. As for the experimental part:
ELISA wells were coated overnight at 4° C. with 0.5 μg/mL recombinant human c-Met extracellular domain (R&D systems, Minneapolis, USA) diluted in PBS. Next, the ELISA wells were washed with PBST (PBS supplemented with 0.05% Tween-20 [Sigma-Aldrich, Zwijndrecht, The Netherlands]) and blocked for one hour at room temperature (RT) with PBST supplemented with 2% (v/v) chicken serum (Gibco, Paisley, Scotland). […] Mean fluorescence intensity at 615 nm was measured using the EnVision 2101 Multilabel reader (PerkinElmer) applying the following settings: Lance/Delfia dual mirror, emission filter 615, excitation filter 340 nm, delay time 400 μs, window 400 μs, 100 flashes, 2000 μs per cycle and bidirectional row-by-row reading. To determine IC₅₀ values, the binding curves were analyzed with non-linear regression (sigmoidal dose-response with variable slope, top-values constrained to a shared value for all data-sets) using GraphPad Prism V4.03 software (GraphPad Software, San Diego, Calif., USA).
FIG. 5 depicts representative examples of HGF binding inhibition curves of anti-c-Met antibodies for binding to the extracellular domain of recombinant human c-Met. 5D5 was used as positive control antibody. All anti-c-Met antibodies in the experiment shown were able to compete with Europium^{3±}-conjugated HGF for binding to recombinant c-Met. […] Without adding Europium³⁺-conjugated HGF, roughly ˜600 relative fluorescent units (RFU) were detected, indicating the signal when maximal inhibition is accomplished. When binding of Europium³⁺-conjugated HGF was not inhibited, approximately ˜66,000 RFU were detected.

The target of experiment [3] is T1, human c-Met, membrane-bound on cells. Nature of the experiment: flow cytometry on A431 cells (PE goat anti-human IgG); bottom panel. As for the experimental part: as §1, §2
The target is the same in experiment [4]. Nature of the experiment: flow cytometry on A431 cells (PE goat anti-human IgG); third panel; curve not saturated. As for the experimental part:
as §1, §2

The target is the same in experiment [5]. Nature of the experiment: flow cytometry on A431 cells (PE goat anti-human IgG); second panel. How it is done:
as §1, §2

For experiment [6] the target is unchanged. Nature of the experiment: flow cytometry on A431 cells (PE goat anti-human IgG); top panel. As for the experimental part:
as §1, §2

Experiment [7] has as its target T3, rhHGF R/Fc Chimera (R&D Systems; Cat.358MT/CF) (human, UniProt P08581 25-932).
T3 construct: Bought reagent; Fc part of the bought chimera not given; not described
The experiment is described as follows: ELISA on coated rhHGF R/Fc Chimera. As for the experimental part:
c-Met binding properties of the mutants were tested in an ELISA. ELISA plate wells were coated overnight at 4° C. with rhHGF R/Fc Chimera (R&D Systems; Cat.358MT/CF) in PBS (1 μg/mL). Next, the wells were washed with PBST (PBS supplemented with 0.05% Tween-20 [Sigma-Aldrich, Zwijndrecht, The Netherlands]) and blocked for one hour at room temperature (RT) with PBSTC (PBST supplemented 2% [v/v] chicken serum [Gibco, Paisley, Scotland]). Subsequently, the wells were washed with PBST and incubated for one hour at RT with the anti-cMet antibodies and variants serially diluted in PBSTC (10 μg/mL in 4-fold dilutions). […] After washing, the reaction was visualized by a 15 min incubation with 2,2′-azino-bis(3-ethylbenzothiazoline-6-sulfonic acid) (ABTS: dilute one ABTS tablet in 50 mL ABTS buffer [Roche Diagnostics, Almere, The Netherlands]) at RT protected from light. The colorization was stopped by adding an equal volume of oxalic acid (Sigma-Aldrich, Zwijndrecht, The Netherlands). […] at 405 nm was measured on a microtiter plate reader (Biotek Instruments, Winooski, USA).

B1: anti-c-Met HuMab 045 (IgG1) (antibody, V domains shown)
VH: EVQLLESGGGLVQPGGSLRLSCAASGFTFSSYAMSWVRQAPGKGLEWVSVISGSGGITYYADSVKGRFTISRDNSKNTLYLQMNSLRAEDTAVYYCARDRGWGSDYWGQGTLVTVSS
VL: EIVLTQSPATLSLSPGERATLSCRASQSVSSYLAWYQQKPGQAPRLLIYDASNRATGIPARFSGSGSGTDFTLTISSLEPEDFAVYYCQQRSNWPFTFGPGTKVDIK
notes: also called TH1016-045; PC1016-045
On to B1, for which the midpoint of the response in experiment [1], the EC50, lay at 0.692 nM. In other words, the sub-nanomolar range.

B2: anti-c-Met HuMab 101 (IgG1) (antibody, V domains shown)
VH: QVQLVQSGGEVKKPGASVKVSCKASGYTFTRHGITWVRQAPGQGLEWMGWISADNGNTNYAQKFQDRVTMTTDTSTSTAYMELRSLRSDDTAVYFCARVFRYFDWLLPYFDYWGQGTLVTVST
VL: not shown
For B2, in experiment [2], the IC50 worked out at 0.0558 µg/mL. In experiment [3], this molecule registered an EC50 of 1.03 nM.

B3: IgG1-024 (antibody, V domains shown)
VH: EVQLLESGGGLVQPGGSLRLSCVASGFTFSSYAMSWVRQAPGKGLEWVSAISGSSGGSTYYVDSVKGRFTISRANSKNTLYLQMNSLRAEDTAVYYCAKDLDRGWMGYFGYWGQGTLVTVSS
VL: DIQMTQSPSSVSASVGDRVTITCRASQGISSWLAWYQHKPGKAPKLLIYAASSLQSGVPSRFSGSGSGTDFTLTISSLQPEDFATYYCQQANSFPTFGQGTRLEIK
notes: also called TH1016-024; PC1016-024
The molecule B3 returned a half-maximal effective concentration (EC50) in experiment [4] of roughly 3.19 nM.

B4: anti-c-Met HuMab 005 (IgG1) (antibody, V domains shown)
VH: QVQLVQSGAEVKKPGSSVKVSCKASGGTFSSYGFGWVRQAPGQGLEWMGRISPILGIANYAQMFQGRVTITADKSTSTAYMELSSLRSEDTAVYYCARDVGYDWPDTFDIWGQGTMVIVSS
VL: DIQMTQSPSSLSASVGDRVTITCRASQGISSWLAWYQQKPEKAPKSLIYAASSLQSGVPSRFSGGGSGTDFTLTISSLQPEDFATYYCQQYNSFPPTFGQGTKVEIK
notes: also called TH1016-005; PC1016-005
Consider B4, for which the EC50 in experiment [5] is 1.56 nM.

B5: anti-c-Met HuMab 098 (IgG1) (antibody, V domains shown)
VH: QVQLVQSGAEVKKPGASVKVSCKASGYTFTNFGISWVRQAPGQGLEWMGWISAFNGHTDYSQKVQGRVTMTTDTSTSTAYMELRSLRSDDTAVFYCARSHYYGSGSPFDYWGQGTLVTVSS
VL: DIQMTQSPSSLSASVGDRVTITCRASQGISNWLAWYQQKPEKAPKSLIYAASSLQSGVPSRFSGSGSGTDFTLTISSLQPEDFATYYCHQYKSYPWTFGQGTKVEIK
notes: also called TH1016-098; PC1016-098
Take B5: in experiment [2], the IC50 amounted to 0.0135 µg/mL. Further, in experiment [3], it took 0.9 nM to reach a half-maximal effect (EC50).

B6: IgG1-1016-022 (antibody, V domains shown)
VH: QVQLVESGGGVVQPGRSLRLSCAASGFTFSSYAMHWVRQAPGKGLEWVAVISYDGSNKYYADSVKGRFTISRDNSKNTLYLQMNSLRAEDTAVYYCARELLWFGELWGYFDLWGRGTLVTVSS
VL: DIQMTQSPSSVSASVGDRVTITCRASQGISSWLAWYQHKPGKAPKLLIYAASSLQSGVPSRFSGSGSGTDFTLTISSLQPEDFATYYCQEASSFTWTFGQGTKVEIK
notes: also called TH1016-022; PC1016-022
B6 returned an EC50 in experiment [5] of 1.1 nM.

B7: anti-c-Met HuMab 006 (IgG1) (antibody, V domains shown)
VH: QVQLVQSGAEVKKPGSSVKVSCKASGGTFSSFGIGWVRQAPGQGLEWMGRIFPILGTANYAQMFQGRVTITADKSTSTAYMELTSLRSEDTAVYYCARDVGYDSADAFDIWGQGTMVTVSS
VL: DIQMTQSPSSLSASVGDRVTITCRASQGISSWLAWYQQKPEKAPKSLIYAASSLQSGVPSRFSGSGSGTDFTLTISSLQPEDFATYYCQQYNSYPPTFGQGTKVEIK
notes: also called TH1016-006; PC1016-006
With B7, the concentration giving a half-maximal response (EC50) was determined as 2.32 nM in experiment [6] and 1.92 nM in experiment [5].

B8: anti-c-Met HuMab 008 (IgG1) (antibody, V domains shown)
VH: EVQLVQSGAEVKKPGESLKISCKGSGYSFTSYWIGWVRQMPGKGLEWMGIIYPGDSETRYSPSFQGQVTISADKSISTAYLQWSSLKASDTAMYYCARQEITGEFDYWGQGTLVTVSS
VL: AIQLTQSPSSLSASVGDRVTITCRASQGISSALAWYQQKPGKAPKLLIYDASSLESGVPSRFSGSGSGTDFTLTISSLQPEDFATYYCQQFNSYPRTFGQGTKVEIK
notes: also called TH1016-008; PC1016-008
In turn, B8 yielded an EC50 in experiment [5] of 0.554 nM.

B9: anti-c-Met HuMab 035 (IgG1) (antibody, V domains shown)
VH: EVQLVQSGAEVKKPGESLKISCKGSGYSFTSYWIGWVRQMPGKGLEWMGIIYPGDSDTRYSPSFQGQVTISADKSISTAYLQWNSLKASDTAMYYCARQEITGEFDYWGQGTLVTVSS
VL: AIQLTQSPSSLSASVGDRVTITCRASQGISSALAWYQQKPGKAPKLLIYDASSLESGVPSRFSGSGSGTDFTLTISSLQPEDFATYYCQQFNSYPMYTFGQGTKLEIK
notes: also called P1016-035; TH1016-035-D09
Molecule B9 had an EC50 in experiment [1] of 1.78 nM.

B10: IgG1-1016-069 (antibody, V domains shown)
VH: QVQLVQSGAEVKKPGASVKVSCETSGYTFTSYGISWVRQAPGHGLEWMGWISAYNGYTNYAQKLQGRVTMTTDTSTSTAYMELRSLRSDDTAVYYCARDLRGTNYFDYWGQGTLVTVSS
VL: DIQMTQSPSSVSASVGDRVTITCRASQGISNWLAWFQHKPGKAPKLLIYAASSLLSGVPSRFSGSGSGTDFTLTISSLQPEDFATYYCQQANSFPITFGQGTRLEIK
notes: also called clone 069; TH1016-069
As for B10, the concentration giving a half-maximal response (EC50) in experiment [7] was 0.0495 µg/mL and 0.0454 µg/mL; in experiment [3], 0.547 nM. Moreover, the IC50 in experiment [2] stood at 0.0267 µg/mL.

B11: anti-c-Met HuMab 181 (IgG1) (antibody, V domains shown)
VH: QVQLVQSGAEVKKPGASVKVSCKASGYTFTSYGISWVRQAPGQGLEWMGWISTYNGYTNYAQKLQGRVTMTTDTSTSTAYMELRSLRSDDTAVYYCARDLRGTAYFDYWGQGTLVTVSS
VL: DIQMTQSPSSVSASVGDRVTITCRASQGISNWLAWYQHKPGKAPKLLIYAASSLLSGVPSRFSGSGSGTDFTLTISSLQPEDFATYYCQQANSFPITFGQGTRLEIK
notes: also called TH1016-181; PC1016-181
On to B11, for which, in experiment [2], the IC50 came to 0.0103 µg/mL. This molecule came in with an EC50 in experiment [3] of 0.679 nM.
